# From the nanobody polyreactivity screen of Harvey et al. (2022)
# Assay: yeast display, Sf9 membrane polyspecificity reagent, FACS + sequencing; frameworks hold sequencing errors
# Method in brief: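 Polyreactivity labels are assigned by the sorting gate from which each nanobody was recovered. The gates were low and high (top ~1%), set on anti-HA fluorescence for expression and streptavidin fluorescence for reagent binding. Before sorting, galactose-induced (36–48 hours) yeast display cells were stained for 1 hour at 4 °C with 10% biotinylated, detergent-solubilized Sf9 membrane reagent.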
row,Sequence,polyreactivity (PSR sort gate)
1,QDQLVESGGGLVQAGGSLRLSCAASGRTFTRNAMGWYRQAPGKERELVAAISISGGRPYYADSVKGRFTISRDNAKNTVYLQMNSLKPEDTAVYYWAKVTTSKYDYDYWGQGTQVTVSS,high polyreactivity
2,QVQLVETGGVLVQAGGSLRLSCAASGRIFPPNAMGWSRQAPGKEREFVASINRSGGRTYYADSVKGRFTISRDNAKNTVYLQMNSLKPEDTAVYYCAATGGYSCPLGVSWKYEYWGQGNQVTVSS,low polyreactivity
3,QVQLVESGGGLVQAGGSLRLSCAASGSTFLYYDMGWYRQAPGKERELVADITWSGSGTYYADSVKGRFTISRDNAKNTVYLQMNSLKPEDTAVYYCDADDTWRGDQYFYSYDYWGQGTQVTVSS,low polyreactivity
4,QFQLVESGGGVVQAGGSLRLSCAASGSIIYVNAMGWYRQAPGKERELVAAINYSGDSTYYADSVKGRFTISRDNAKNTVYLQMNSLKPEDTAVYYCAADIYVYYAPVYQYYWYDSWGQGTQVTVSS,high polyreactivity
5,QVQLVESGGGLVQAGGSLRLSCAASGRTFLHNAMGWYRQAPGKERELVAAITWSGGSTYYADSVKGRFTISRDNAKNTVYLQMNSLKPEDTAVYYCNARHRYYRYGYWGQGTQVTVSS,high polyreactivity
6,QVQLVESGGGLVQAGGSLRLSCAASGRTFRYNAMGWYLQAPGKERELVAAITRRDGRTYYADSVKGRFTISRDNAKNTVYLQMNSLKPEDTAVYYCGVEYWVVNAQGYDYWGQGTQVTVSS,high polyreactivity
7,QVQLVESGGGLVQAGGSLRLSCAASGFIFLYNVMGWYRQAPGKERELVAAISWRGGTYYAHSVKGRFTISRDNAKNTVYLQMNSLKPEDTAVYYCAKKQRYYGRMDYWGQGTQVTVSS,high polyreactivity
8,QVQLVESGGGLVQAGGSLRLSCAASGLIFYGYVMGWYRQAPGKERELVAGISRNSGSTYYADSVKGRFTISRDNAKITVYLQMKSLKPEDTAVYYCDALKFEAWAGEDYWGQGTQLTVSS,low polyreactivity
9,QVQLVESGGGLVQAGGSLRLTCAASGSIFYVNAMGWYRQAPGKERESVAGITGSGSRTYYADSVKGRFTISRDNAKNTVYLQMNSLKPEDTAVYYCARLTRTSRGLYDYWGQGTQVTVSS,high polyreactivity
10,QVQLVESVGGLVQAGGSLRLSCAASGITFRYYAMGWYRQAPGKERELVADINRGSDTNYADSVKGRFTISRDNAKNTVYLQMNSLKPEDTAVYYCAARSFRSRFRLYIVEFGGYDYWGQGTQVTVSS,low polyreactivity
11,QVQLVESGGGLVQAGGSLRLSCAASGRIFTHNAMGWYRQAPGKERELVAAITIGGRTNYADSVKGRFTISRDNAKNTVYLQMNSLKPEDTAVYYCARRYGTWNAYDYWGQGTQVTVSS,low polyreactivity
12,QVQLVESGGGLVQAGGSLRLSCAASGYTFGYYTMGWYRQAPGKERELVASIDSGGGTYYADSVKGRFTISRDNAKNTVYLQMNSLKPEDTAVYYCAARSAILKSGYLMDYWGQGTQVTVSS,low polyreactivity
13,QVQLVDSGGGLVQAGGSLRLSCADSGSINGNYVMGWYRQAPRKERELVAAIRWTGGSTYYADTVKGRFTISRDNAKNTVYLQMNSLKPEDTAVYYCNAESTYYPSGEDYWGQGTQVNVSS,high polyreactivity
14,QLQLVESGGGIVQAGGSLRLSCAPSGRIFFPNAMGSYRQAPGTERELVAGISIGGSTNYADSVKGRFTISRDNAKNTVYLQMNSLKPEDTAVYYWAARSPFGRWRDYWGQGTQVTVSS,low polyreactivity
15,QVQLVESGGGLVQSGGSLRLTCAASGFIFHKYVMGWYSPAPGKEREMVAAISRSGASTYYADSVKGRFTISRDNAKNTVYLQMNSLKPEDTAVYYCAKDYQTYSGSSDFDYWGQGSQVTVSS,high polyreactivity
16,QDQLVESGGGIVQAGVSLRLSCAANGIIFDYYAMGWYRQAPGKERELVAAINRNGGTTYYADSVKGRFTISRDNAKNTVYLQMICLKPEDTAVYYCAAVDFGWSTYYYWGQGTQVTVAS,high polyreactivity
17,QVQLVESGGGLVQAGGSLRLSCAASGRTFDRNAMGWYRQAPGKERELVAAITSRGGRTYYADSVKGRFTISRDNAKNTVYLQMNSLKPEDTAVYYCAADLFSSRVRSNFDYWGQGTQVTVSS,high polyreactivity
18,QVQLVESGGGLVQAGGSLRLSCAASGIIFYRNARGWYRQAPGKERELVAAISSRGGNTYYADSVKGRFTISRDNAKNTVYLQMNSLQPEDTAVYYCARDSYSLSRTYDSWGQGTQVTLSS,high polyreactivity
19,QVQIVDSGGGLVQAGCSLRLSCAASGFTFFSYAMGWYRQAHWKERELVAAISRSGGRKYYADSVKGRFTISRDNAKNTVYLLMNSLKPEDTAVYYCAAETKTIPFEYWGQGTQVTVSS,high polyreactivity
20,QVQLVESGGGLVQAGGSLRLSCAASGSIFGRYAMGWYRQAPGTERELVAAISSGGITYYADSVKGRFTISRDNAKNTVYLQMNSLTPEDTAVYYCAVKYLSWYAKYDSWGQGTQVTVSS,high polyreactivity

row,Sequence,polyreactivity (PSR sort gate)
1,QVQLVESGGGLVQAGGSLRLSCAASGLTFDYYVMGWYRQAPGKERELVATISWSGDITYYADSVKGRFTISRDNAKNTVYLQMNSLKPEDTAVYYCAADYLDSTYGYVYGWDDYWGQGTQVTVSS,low polyreactivity
2,QVQLVESGGGLVQAGGSLRLSCAASGFIFEYYAMGGYRQAPGKERELVAAISGGGRTYYADSVKGRFTISRDNAKNTVYLQMNSLKPEDTAVYYCAAGYAYRGYWVNRITRDGYWGQGTQVTVSS,high polyreactivity
3,QVQLVESGGGLVQAGGSLRLSCAASGRTSVGYVMGWYRQAPGKERELVASITSGGSTYYADSVKGRFTISRDNAKNTVYLQMNSLKPEDTAVYYCAAQLKSHRTYGHDYWGQGTQVTVSS,low polyreactivity
4,QVQLVESGVGLVQAGGSLRLSCAASGRTFPYNAMGWYRQAPGKERELVAVISSSGGSTYYADSVKGRFTISRDNAKNTVYLQMNSLKPEDTAVYYCNTRPYFYRRPGYRYSGYDYWGLGTQVTVSS,high polyreactivity
5,QVQLVESGGGLVQAGGSLGLSCAASGSFFYQNAMGWYRQAPGKDREWVAAISRSGGSTYYADSVMGRFTISRDNAKISVDEQMNSLQPEDTPVYYCAARNSRQGSYSRDFWGQGTQVTVSS,high polyreactivity
6,QVQHVESGGGLVQAGGSLRLSCAASGSIFVFYAMGWYRQAHGKEREFVASITSSGGSTYYADSVKGRFTISRDNAKNTVYLQMNSLKPEDTAVYYCAARKYRNPYYYRYYYWGQGTQVTVSS,high polyreactivity
7,QVQLVESGGGLVQAGGSLRLSCAASGSTSYVYAMGWYRQAPGKERELVAANSGSGGRTYYADSVKGRFTISRDNAKNTVYLQMNSLKPEDTAVYYCNALTRPSYPFDYWGLGTQVTVSS,high polyreactivity
8,QVQLVESGGGLVQAGGSLRLSCAASGGIFLYNAMGWYRQAPGKERELVAAISRSGGGTYYADSVKGRFTISRDNAKNTVYLQMNSLKPEDTAVYYCAKTLRAYSDYYYWGQGTQVTVSS,high polyreactivity
9,QVQLVESGGGLVQAGGSLRLSCAASGFIFYYYAMGWYRQAPGKERELVAAISSGGSTYYADSVKGRFTISRDNAKNTVYLQMNSLKPEDTAVYYCNARGFYRGYTYYYWGQGTQVTVSS,high polyreactivity
10,QVQLVDSGGGLVQAGGSLRLSCAASGSTLAYYTMGWYRQAPGKERELVAAITSGGFTHYADSVKGRFTISRDNAKNTVYLQMNSLKPEDTAVYYCAAKRGPVYYGYYYLGQGTQVTVSS,high polyreactivity
11,QVQLVESGGGLVQAGGSLRLSCAASGFTFRYYAMGWYRQAPGKERELVAAITSGGGSTYYADSVKGRFTISRDNAKNTVYLQMNSLKPEDTAVYYCATKRARYSYDYWGQGTQVTVSS,high polyreactivity
12,QVQLVESGGGLVQAGGSLRLSCAASGRTFRGNAMGWYRQAPGKERELVAAGGSTYYADSVKGRFTISRDNAKNTVYLQINSLKPEDTAVYYCAAALGFSRYSWFCYGYWGQGTQVTGSS,low polyreactivity
13,HVQLVESGGGLVQAGGSLRLSCAASGSTFKRYAMGGDRQAPGKEREFVAGISWRGGSTYYADSVKGRFTISRDNAKNTVYLQMNSLKPEDTAVYFCAARSFSNIGYHGYGYWGQGTQVTVSS,high polyreactivity
14,QVQLVESGGGLVQAGGSLRLSCAASGNAMGWYRQAPGKERELVAAITRRGGSTYYADSVKGRFTISRDNAKNTVYLQMNSLKPEDTAVYYCAAENPSYNLCYGYWGQGTQVTVSS,low polyreactivity
15,QVQLVESGGGLVQAGGSLRLSCAASGSTFYYYAMGWYRQAPGKERELVAAISATGGSTYYADSVKGRFTISRDNAKNTVYLQMNSLKPEDTAVYYCAAYASRRLRTIRIFGNDYWGQGTQVTVSS,high polyreactivity
16,QVQLVESGGGLVQAGGSLRLSCAASGFIFRTYAMGWYRQAPGKERELVAAISGTTGSTYYADSVKGRFTISRDNAKNTVYLQMNSLKPEDTAVYFCAADYYWYIRYEYWGQGSQVTVSS,low polyreactivity
17,QVQLVESGGGLVQAGGSLRLSCAASGFTFWSYAMGWYRQAPGKERELVAAISSSGDSTYYADSVKGRFTISRDNAKNTVYLQMNSLKPEDTAVYYCAAEYQYLSVEVTDIWYLTKYDYWGQGTQVTVSS,low polyreactivity
18,QVQLVESGAGLVQAGGSLRLSCAASGRTFKTYAMAWYRQAPGKERELVAAISRDGRTYYADSVKGRFTISRDNAKNTVYLQMNSLKPEDTAVYYCAKDASVWPWWGYRGDYWGQGTQVTVSS,low polyreactivity
19,QVQLQESGGGLVQAGGGLRLSCAASGTISGPHVMGWYRQAPGEEREFVAAINVGANTYYADNVKGRFTISRDNAKNTVYLQMNSLKPEDTAVYYCAAVYYGDIGHEYWGQGTQVTVSC,low polyreactivity
20,QVQIVESGGGLVQAGGSLRLSCAASGSIFPHYAMGWYRQAPGKERELVAAISRGGSTNYADSVKGRFTISRDNAKNTVYLQMNSLKPEDTAVYYCNALRYYSRFLYAVAYRYDYWGQGTQVTVSS,high polyreactivity
